Test results as given in PMC8363748, “The conformational stability of pro-apoptotic BAX is dictated by discrete residues of the protein core” (Nature Communications, 2021).

B1: N-His6-GFP-BAX α2–α5 (53–128), C62S/C126S (domain or fragment, human, UniProt Q07812 53-128, looked up)
chain: DASTKKLSESLKRIGDELDSNMELQRMIAAVDTDSPREVFFRVAADMFSDGNFNWGRVVALFYFASKLVLKALSTK
notes: BAX α2–α5 truncate, residues 53–128, human; also called BAX α2–α5 WT; wild-type BAX α2–α5; source: E. coli, purified (Ni-NTA, SEC Superdex S-200); not shown: His6, N-terminal, kept; GFP, N-terminal, kept
B2: GFP-BAX α2–α5 Y115A (domain or fragment, human, UniProt Q07812 53-128, looked up)
chain: DASTKKLSESLKRIGDELDSNMELQRMIAAVDTDSPREVFFRVAADMFSDGNFNWGRVVALFAFASKLVLKALSTK
notes: BAX α2–α5 truncate, residues 53–128, human; source: E. coli, purified (Ni-NTA, SEC Superdex S-200); not shown: His6, N-terminal, kept; GFP, N-terminal, kept
B3: GFP-BAX α2–α5 L113A/F114A (domain or fragment, human, UniProt Q07812 53-128, looked up)
chain: DASTKKLSESLKRIGDELDSNMELQRMIAAVDTDSPREVFFRVAADMFSDGNFNWGRVVAAAYFASKLVLKALSTK
notes: BAX α2–α5 truncate, residues 53–128, human; also called double alanine mutant; source: E. coli, purified (Ni-NTA, SEC Superdex S-200); not shown: His6, N-terminal, kept; GFP, N-terminal, kept
B4: GFP-BAX α2–α5 F114A (domain or fragment, human, UniProt Q07812 53-128, looked up)
chain: DASTKKLSESLKRIGDELDSNMELQRMIAAVDTDSPREVFFRVAADMFSDGNFNWGRVVALAYFASKLVLKALSTK
notes: as for B2
B5: GFP-BAX α2–α5 L113A/F114A/F116A (domain or fragment, human, UniProt Q07812 53-128, looked up)
chain: DASTKKLSESLKRIGDELDSNMELQRMIAAVDTDSPREVFFRVAADMFSDGNFNWGRVVAAAYAASKLVLKALSTK
notes: BAX α2–α5 truncate, residues 53–128, human; also called triple BAX α2–α5 mutant L113A/F114A/F116A; source: E. coli, purified (Ni-NTA, SEC Superdex S-200); not shown: His6, N-terminal, kept; GFP, N-terminal, kept
B6: GFP-BAX α2–α5 Y115A/F116A (domain or fragment, human, UniProt Q07812 53-128, looked up)
chain: DASTKKLSESLKRIGDELDSNMELQRMIAAVDTDSPREVFFRVAADMFSDGNFNWGRVVALFAAASKLVLKALSTK
notes: as for B3
B7: GFP-BAX α2–α5 F116A (domain or fragment, human, UniProt Q07812 53-128, looked up)
chain: DASTKKLSESLKRIGDELDSNMELQRMIAAVDTDSPREVFFRVAADMFSDGNFNWGRVVALFYAASKLVLKALSTK
notes: as for B2
B8: GFP-BAX α2–α5 L113A/F114A/Y115A (domain or fragment, human, UniProt Q07812 53-128, looked up)
chain: DASTKKLSESLKRIGDELDSNMELQRMIAAVDTDSPREVFFRVAADMFSDGNFNWGRVVAAAAFASKLVLKALSTK
notes: BAX α2–α5 truncate, residues 53–128, human; also called triple BAX α2–α5 mutant L113A/F114A/Y115A; source: E. coli, purified (Ni-NTA, SEC Superdex S-200); not shown: His6, N-terminal, kept; GFP, N-terminal, kept
B9: GFP-BAX α2–α5 F114A/Y115A (domain or fragment, human, UniProt Q07812 53-128, looked up)
chain: DASTKKLSESLKRIGDELDSNMELQRMIAAVDTDSPREVFFRVAADMFSDGNFNWGRVVALAAFASKLVLKALSTK
notes: as for B3
B10: GFP-BAX α2–α5 L113A/Y115A (domain or fragment, human, UniProt Q07812 53-128, looked up)
chain: DASTKKLSESLKRIGDELDSNMELQRMIAAVDTDSPREVFFRVAADMFSDGNFNWGRVVAAFAFASKLVLKALSTK
notes: as for B3
B11: GFP-BAX α2–α5 L113A/Y115A/F116A (domain or fragment, human, UniProt Q07812 53-128, looked up)
chain: DASTKKLSESLKRIGDELDSNMELQRMIAAVDTDSPREVFFRVAADMFSDGNFNWGRVVAAFAAASKLVLKALSTK
notes: BAX α2–α5 truncate, residues 53–128, human; also called triple alanine mutant L113A/Y115A/F116A; source: E. coli, purified (Ni-NTA, SEC Superdex S-200); not shown: His6, N-terminal, kept; GFP, N-terminal, kept
B12: GFP-BAX α2–α5 F114A/Y115A/F116A (domain or fragment, human, UniProt Q07812 53-128, looked up)
chain: DASTKKLSESLKRIGDELDSNMELQRMIAAVDTDSPREVFFRVAADMFSDGNFNWGRVVALAAAASKLVLKALSTK
notes: BAX α2–α5 truncate, residues 53–128, human; also called triple alanine mutant F114A/Y115A/F116A; source: E. coli, purified (Ni-NTA, SEC Superdex S-200); not shown: His6, N-terminal, kept; GFP, N-terminal, kept
B13: GFP-BAX α2–α5 L113A (domain or fragment, human, UniProt Q07812 53-128, looked up)
chain: DASTKKLSESLKRIGDELDSNMELQRMIAAVDTDSPREVFFRVAADMFSDGNFNWGRVVAAFYFASKLVLKALSTK
notes: as for B2
B14: GFP-BAX α2–α5 F114A/F116A (domain or fragment, human, UniProt Q07812 53-128, looked up)
chain: DASTKKLSESLKRIGDELDSNMELQRMIAAVDTDSPREVFFRVAADMFSDGNFNWGRVVALAYAASKLVLKALSTK
notes: as for B3
B15: GFP-BAX α2–α5 L113A/F116A (domain or fragment, human, UniProt Q07812 53-128, looked up)
chain: DASTKKLSESLKRIGDELDSNMELQRMIAAVDTDSPREVFFRVAADMFSDGNFNWGRVVAAFYAASKLVLKALSTK
notes: as for B3

Target: the molecule itself
Assay: SEC; N-His6-GFP-BAX α2–α5 proteins, Superdex S-200, TBS; the dimer is observed as a GFP-mediated dimer/oligomer of dimers

Binding result, binds:
B1
B2
B3
B4
B5
B6
B7
B8
B9
B10
B11
B12
B13
B14
B15
